Measured values: the supplement of paper PMC10567573

B1: TFE3 (parent)
chain: ELPNIKREISETEAKALLKERQKK
B2: FUT8 (parent)
chain: YPSYKVREKIETVKYPTYPEAEK

Variants of: B1
Experiment: protein stability index of a GFP-peptide fusion (GPS, HEK-293T) (PSI 1-6); higher = more stable
Conditions: c terminus: a fixed tail appended
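Further: lentivirally expressed fusions sorted by FACS into six bins by GFP to DsRed ratio, PSI derived from sequencing read proportions per bin multiplied by bin number.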

Variant	protein stability index
ELPNIKREISETEAKALLGERQKK [K19G]	1.71
ELPNIKREISETEAKALLMERQKK [K19M]	2.89
ELPNIKREISETEAKALLIERQKK [K19I]	2.84
ELPNIKREISETEAKALLHERQKK [K19H]	2.36
ELPNIKREISETEAKALLEERQKK [K19E]	2.62
ELPNIKREISETEAKALLVERQKK [K19V]	2.8
ELPNIKREISETEAKALLSERQKK [K19S]	2.53
ELPNIKREISETEAKALLAERQKK [K19A]	2.7
ELPNIKREISETEAKALLCERQKK [K19C]	2.07
ELPNIKREISETEAKALLNERQKK [K19N]	2.57
ELPNIKREISETEAKALLLERQKK [K19L]	2.84
ELPNIKREISETEAKALLTERQKK [K19T]	2.42
ELPNIKREISETEAKALLDERQKK [K19D]	2.52
ELPNIKREISETEAKALLYERQKK [K19Y]	3.06
ELPNIKREISETEAKALLQERQKK [K19Q]	2.83
ELPNIKREISETEAKALLWERQKK [K19W]	2.29
ELPNIKREISETEAKALLFERQKK [K19F]	2.65
ELPNIKREISETEAKALLRERQKK [K19R]	2.32
ELPNIKREISETEAKALLPERQKK [K19P]	2.29
ELPNIKREISETEAKALLKERQYK [K23Y]	2.1
ELPNIKREISETEAKALLKERQDK [K23D]	2.56
ELPNIKREISETEAKALLKERQRK [K23R]	2.78
ELPNIKREISETEAKALLKERQIK [K23I]	2.34
ELPNIKREISETEAKALLKERQSK [K23S]	2.8

Variant	protein stability index
ELPNIKREISETEAKALLKERQFK [K23F]	2.36
ELPNIKREISETEAKALLKERQQK [K23Q]	2.45
ELPNIKREISETEAKALLKERQCK [K23C]	3.09
ELPNIKREISETEAKALLKERQNK [K23N]	2.85
ELPNIKREISETEAKALLKERQVK [K23V]	2.61
ELPNIKREISETEAKALLKERQTK [K23T]	2.86
ELPNIKREISETEAKALLKERQMK [K23M]	2.4
ELPNIKREISETEAKALLKERQEK [K23E]	2.64
ELPNIKREISETEAKALLKERQAK [K23A]	2.19
ELPNIKREISETEAKALLKERQPK [K23P]	2.35
ELPNIKREISETEAKALLKERQWK [K23W]	2.36
ELPNIKREISETEAKALLKERQGK [K23G]	2.42
ELPNIKREISETEAKALLKERQLK [K23L]	2.91
ELPNIKREISETEAKALLKERQHK [K23H]	2.44
ELPNIKREISETEAKALLKERQKE [K24E]	3.37
ELPNIKREISETEAKALLKERQKI [K24I]	2.69
ELPNIKREISETEAKALLKERQKH [K24H]	2.2
ELPNIKREISETEAKALLKERQKQ [K24Q]	2.84
ELPNIKREISETEAKALLKERQKV [K24V]	2.96
ELPNIKREISETEAKALLKERQKM [K24M]	2.19
ELPNIKREISETEAKALLKERQKY [K24Y]	2.69
ELPNIKREISETEAKALLKERQKP [K24P]	2.17
ELPNIKREISETEAKALLKERQKA [K24A]	2.46
ELPNIKREISETEAKALLKERQKR [K24R]	2.15

Variant	protein stability index
ELPNIKREISETEAKALLKERQKS [K24S]	2.28
ELPNIKREISETEAKALLKERQKT [K24T]	2.79
ELPNIKREISETEAKALLKERQKG [K24G]	2.76
ELPNIKREISETEAKALLKERQKN [K24N]	3.05
ELPNIKREISETEAKALLKERQKF [K24F]	2.03
ELPNIKREISETEAKALLKERQKC [K24C]	2.71
ELPNIKREISETEAKALLKERQKW [K24W]	2.44
ELPNIKREISETEAKALLKERQKD [K24D]	2.91
ELPNIKREISETEAKALLKERQKL [K24L]	2.53
ELPNIKREISETEAKALLKYRQKK [E20Y]	2.5
ELPNIKREISETEAKALLKLRQKK [E20L]	2.44
ELPNIKREISETEAKALLKQRQKK [E20Q]	2.77
ELPNIKREISETEAKALLKHRQKK [E20H]	2.9
ELPNIKREISETEAKALLKVRQKK [E20V]	2.52
ELPNIKREISETEAKALLKNRQKK [E20N]	2.9
ELPNIKREISETEAKALLKIRQKK [E20I]	2.29
ELPNIKREISETEAKALLKKRQKK [E20K]	2.83
ELPNIKREISETEAKALLKTRQKK [E20T]	3.07
ELPNIKREISETEAKALLKFRQKK [E20F]	2.03
ELPNIKREISETEAKALLKSRQKK [E20S]	2.67
ELPNIKREISETEAKALLKDRQKK [E20D]	2.79
ELPNIKREISETEAKALLKCRQKK [E20C]	2.07
ELPNIKREISETEAKALLKPRQKK [E20P]	2.52
ELPNIKREISETEAKALLKWRQKK [E20W]	2.82

Variant	protein stability index
ELPNIKREISETEAKALLKRRQKK [E20R]	3.29
ELPNIKREISETEAKALLKARQKK [E20A]	2.99
ELPNIKREISETEAKALLKGRQKK [E20G]	2.78
ELPNIKREISETEAKALLKMRQKK [E20M]	2.59
ELPNIKREISETEAKAPLKERQKK [L17P]	3.56
ELPNIKREISETEAKAYLKERQKK [L17Y]	2.48
ELPNIKREISETEAKAQLKERQKK [L17Q]	2.56
ELPNIKREISETEAKAWLKERQKK [L17W]	2.7
ELPNIKREISETEAKAMLKERQKK [L17M]	2.71
ELPNIKREISETEAKATLKERQKK [L17T]	2.68
ELPNIKREISETEAKARLKERQKK [L17R]	3.27
ELPNIKREISETEAKAVLKERQKK [L17V]	3.14
ELPNIKREISETEAKASLKERQKK [L17S]	2.32
ELPNIKREISETEAKAKLKERQKK [L17K]	3.17
ELPNIKREISETEAKANLKERQKK [L17N]	2.56
ELPNIKREISETEAKALRKERQKK [L18R]	2.32
ELPNIKREISETEAKALEKERQKK [L18E]	2.5
ELPNIKREISETEAKALHKERQKK [L18H]	2.56
ELPNIKREISETEAKALAKERQKK [L18A]	2.67
ELPNIKREISETEAKALQKERQKK [L18Q]	2.96
ELPNIKREISETEAKALGKERQKK [L18G]	1.87
ELPNIKREISETEAKALMKERQKK [L18M]	2.05
ELPNIKREISETEAKALYKERQKK [L18Y]	2.92
ELPNIKREISETEAKALDKERQKK [L18D]	2.07

Variant	protein stability index
ELPNIKREISETEAKALNKERQKK [L18N]	2.4
ELPNIKREISETEAKALFKERQKK [L18F]	2.28
ELPNIKREISETEAKALTKERQKK [L18T]	2.65
ELPNIKREISETEAKALVKERQKK [L18V]	2.2
ELPNIKREISETEAKALPKERQKK [L18P]	2.77
ELPNIKREISETEAKALIKERQKK [L18I]	3.06
ELPNIKREISETEAKALWKERQKK [L18W]	2.37
ELPNIKREISETEAKALSKERQKK [L18S]	2.77
ELPNIKREISETEAKALKKERQKK [L18K]	3.19
ELPNIKREISETEAKALCKERQKK [L18C]	2.6
ELPNIKREISETEAKALLKERNKK [Q22N]	2.5
ELPNIKREISETEAKALLKERVKK [Q22V]	2.83
ELPNIKREISETEAKALLKERKKK [Q22K]	2.35
ELPNIKREISETEAKALLKERWKK [Q22W]	2.4
ELPNIKREISETEAKALLKERAKK [Q22A]	2.73
ELPNIKREISETEAKALLKERHKK [Q22H]	2.73
ELPNIKREISETEAKALLKERRKK [Q22R]	2.9
ELPNIKREISETEAKALLKERDKK [Q22D]	2.11
ELPNIKREISETEAKALLKERYKK [Q22Y]	1.8
ELPNIKREISETEAKALLKERFKK [Q22F]	2.34
ELPNIKREISETEAKALLKERGKK [Q22G]	2.77
ELPNIKREISETEAKALLKERLKK [Q22L]	2.24
ELPNIKREISETEAKALLKERIKK [Q22I]	2.52
ELPNIKREISETEAKALLKERPKK [Q22P]	2.34

Variant	protein stability index
ELPNIKREISETEAKALLKERSKK [Q22S]	2.73
ELPNIKREISETEAKALLKEREKK [Q22E]	2
ELPNIKREISETEAKALLKERCKK [Q22C]	2.71
ELPNIKREISETEAKALLKERTKK [Q22T]	2.52
ELPNIKREISETEAKALLKERMKK [Q22M]	2.75
ELPNIKREISETEAKALLKEYQKK [R21Y]	2.72
ELPNIKREISETEAKALLKEKQKK [R21K]	2.5
ELPNIKREISETEAKALLKENQKK [R21N]	2.91
ELPNIKREISETEAKALLKEGQKK [R21G]	2.28
ELPNIKREISETEAKALLKETQKK [R21T]	2.82
ELPNIKREISETEAKALLKEEQKK [R21E]	2.74
ELPNIKREISETEAKALLKEPQKK [R21P]	2.32
ELPNIKREISETEAKALLKEDQKK [R21D]	2.88
ELPNIKREISETEAKALLKEHQKK [R21H]	2.63
ELPNIKREISETEAKALLKEVQKK [R21V]	2.53
ELPNIKREISETEAKALLKESQKK [R21S]	1.81
ELPNIKREISETEAKALLKEAQKK [R21A]	3.07
ELPNIKREISETEAKALLKEIQKK [R21I]	2.66
ELPNIKREISETEAKALLKEQQKK [R21Q]	2.73
ELPNIKREISETEAKALLKELQKK [R21L]	2.97
ELPNIKREISETEAKALLKEMQKK [R21M]	2.25
ELPNIKREISETEAKALLKEWQKK [R21W]	2.15
ELPNIKREISETEAKALLKEFQKK [R21F]	2.38
ELPNIKREISETEAKALLKECQKK [R21C]	2.43

Variants of: B2
Experiment: as above
Conditions: c terminus: native

Variant	protein stability index
IPSYKVREKIETVKYPTYPEAEK [Y1I]	5.15
PPSYKVREKIETVKYPTYPEAEK [Y1P]	5.38
LPSYKVREKIETVKYPTYPEAEK [Y1L]	5.16
YPSYKVREKIETVFYPTYPEAEK [K14F]	2.73
YPSYKVREKIETVKYPTYPEAVK [E22V]	1.9
YPSYKVREKIETVKYPTYPEANK [E22N]	4.36
YPSYKVREKIETVKYPTYPEALK [E22L]	1.97
YPSYKVREKIETVKYPTYPEATK [E22T]	3.32
YPSYKVREKIETQKYPTYPEAEK [V13Q]	4.49
YPSYKVREKIETFKYPTYPEAEK [V13F]	3.77
YPSYKVREKIETVKYYTYPEAEK [P16Y]	3.62
YPSYKVREKIETVKYVTYPEAEK [P16V]	4.6
YPSYKMREKIETVKYPTYPEAEK [V6M]	3.86
YPSYKLREKIETVKYPTYPEAEK [V6L]	4.69
YMSYKVREKIETVKYPTYPEAEK [P2M]	3.58
YISYKVREKIETVKYPTYPEAEK [P2I]	2.91
YSSYKVREKIETVKYPTYPEAEK [P2S]	4.78
YPSYKVRSKIETVKYPTYPEAEK [E8S]	3.57
YPSYKVRIKIETVKYPTYPEAEK [E8I]	2.62
YPSYKVRTKIETVKYPTYPEAEK [E8T]	3.43
YPSYKVREKIETVKYPTYPEWEK [A21W]	4.21
YPSYKVREKIETVKYPTYPEIEK [A21I]	3.85
YPSYKVREKIETVKYPTYPEHEK [A21H]	4.56

Variant	protein stability index
YPSYKVREKIETVKYPWYPEAEK [T17W]	1.94
YPSYKVREKIETVKYPDYPEAEK [T17D]	3.7
YPSYKVREKIETVKYPTDPEAEK [Y18D]	4.47
YPSYKVREKIETVKYPTFPEAEK [Y18F]	3.89
YPSYKVREKIETVKYPTYPHAEK [E20H]	3.97
YPSYKVREKIETVKYPTYGEAEK [P19G]	3.94
YPSYKVREKIETVKYPTYREAEK [P19R]	3.71
YPSYKVREKIETVKYPTYKEAEK [P19K]	4.19
YPSYKVREKIETVKGPTYPEAEK [Y15G]	4.85
YPSYKVREKIETVKAPTYPEAEK [Y15A]	3.39
YPSYKVREKIETVKEPTYPEAEK [Y15E]	4.59
YPSYKVREKIETVKLPTYPEAEK [Y15L]	4.33
YPSYKVREKWETVKYPTYPEAEK [I10W]	2.87
YPSYKVREKPETVKYPTYPEAEK [I10P]	4.09
YPSYKVREKQETVKYPTYPEAEK [I10Q]	4.17
YPSYKVREKIECVKYPTYPEAEK [T12C]	4.17
YPSYKVREKIEDVKYPTYPEAEK [T12D]	4.57
YPSYKVREKIEFVKYPTYPEAEK [T12F]	3.06
YPSYSVREKIETVKYPTYPEAEK [K5S]	4.54
YPSYEVREKIETVKYPTYPEAEK [K5E]	5.15
YPSIKVREKIETVKYPTYPEAEK [Y4I]	4.16
YPSGKVREKIETVKYPTYPEAEK [Y4G]	5.38
